Measured values published in IntAct's records for PubMed 19322201.

Molecular target: elav1_human ELAVL1 (UniProt Q15717)

Polyubiquitin-C (Homo sapiens) (from UniProt P0CG48) K48R
effect of a mutation on the interaction: disrupting interaction
